Earlier results in publication PMC12525728, “Safety, Pharmacokinetics, Translational and Molecular Mechanistic Insights on the Prostate Cancer Recurrence Suppressor Pseurotin A” (Molecules, 2025).
Read-outs that look alike come from different tables or passages of the source.

Design: method as in PMID 39441027
Conditions: cited from earlier work; for relative % reduction for LDL-C: propensity score matching analysis

B1: evolocumab (antibody, chains of the INN, looked up, V domains shown)
VH: EVQLVQSGAEVKKPGASVKVSCKASGYTLTSYGISWVRQAPGQGLEWMGWVSFYNGNTNYAQKLQGRGTMTTDPSTSTAYMELRSLRSDDTAVYYCARGYGMDVWGQGTTVTVSS
VL: ESALTQPASVSGSPGQSITISCTGTSSDVGGYNSVSWYQQHPGKAPKLMIYEVSNRPSGVSNRFSGSKSGNTASLTISGLQAEDEADYYCNSYTSTSMVFGGGTKLTVL
notes: FDA-approved marketed humanized monoclonal antibody that interferes with the PCSK9-LDLR PPI
Clinical trials, after 8 dosing weeks
  total cholesterol reduction: −26.5%
females
  relative % reduction for LDL-C: −42.7%
males
  relative % reduction for LDL-C: −54.4%
